{"source": "patent US20140072613A1", "about": "“Compositions and Methods for Treating Cutaneous Scarring” (priority 2012, published 2014)", "assay_in_all_cases": "biochemical", "assay_type_in_all_cases": "biochemical", "key": {"[1]": {"molecular_target": "266 human kinases (Homo sapiens, UniProt O43293)", "sequence (O43293 whole entry)": "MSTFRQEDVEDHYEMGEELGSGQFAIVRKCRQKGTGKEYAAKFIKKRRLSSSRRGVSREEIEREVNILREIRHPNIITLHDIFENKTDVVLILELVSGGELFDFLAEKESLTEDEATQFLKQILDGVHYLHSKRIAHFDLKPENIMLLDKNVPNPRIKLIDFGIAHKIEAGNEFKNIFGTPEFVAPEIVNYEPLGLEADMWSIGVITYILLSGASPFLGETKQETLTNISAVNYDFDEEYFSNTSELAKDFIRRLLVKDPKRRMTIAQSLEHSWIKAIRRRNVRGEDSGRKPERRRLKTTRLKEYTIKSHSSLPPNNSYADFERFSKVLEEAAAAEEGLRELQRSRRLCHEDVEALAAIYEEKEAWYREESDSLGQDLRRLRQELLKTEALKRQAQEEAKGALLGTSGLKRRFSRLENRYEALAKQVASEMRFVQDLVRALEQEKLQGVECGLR", "details": "ZIPK(h); 100 μM", "method_in_brief": "(§1)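 Steps: kinase transfers radiolabelled phosphate from ATP onto a positively charged substrate; the substrate is trapped on a negatively charged filter; bound radioactivity is counted by scintillation and compared with uninhibited (100%) activity.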"}, "[2]": {"molecular_target": "266 human kinases (Homo sapiens, UniProt O75116)", "details": "ROCK-II(h); 100 μM", "method_in_brief": "as §1"}, "[3]": {"molecular_target": "266 human kinases (Homo sapiens, UniProt P06239)", "sequence (P06239 whole entry)": "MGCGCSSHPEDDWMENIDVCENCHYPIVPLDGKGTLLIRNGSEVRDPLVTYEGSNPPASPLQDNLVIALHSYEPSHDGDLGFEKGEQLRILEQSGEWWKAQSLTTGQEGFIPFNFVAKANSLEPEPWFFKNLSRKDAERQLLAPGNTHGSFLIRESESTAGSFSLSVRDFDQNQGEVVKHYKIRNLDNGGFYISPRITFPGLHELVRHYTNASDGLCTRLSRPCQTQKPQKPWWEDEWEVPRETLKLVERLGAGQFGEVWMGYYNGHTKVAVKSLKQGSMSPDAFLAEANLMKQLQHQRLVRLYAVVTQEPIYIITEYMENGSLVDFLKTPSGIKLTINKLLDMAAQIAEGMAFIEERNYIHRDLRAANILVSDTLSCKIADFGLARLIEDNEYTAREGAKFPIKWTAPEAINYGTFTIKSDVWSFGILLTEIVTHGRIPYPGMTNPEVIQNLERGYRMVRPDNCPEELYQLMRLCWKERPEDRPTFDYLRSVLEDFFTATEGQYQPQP", "details": "100 μM", "method_in_brief": "as §1"}, "[4]": {"molecular_target": "266 human kinases (Homo sapiens, UniProt P08631)", "sequence (P08631 whole entry)": "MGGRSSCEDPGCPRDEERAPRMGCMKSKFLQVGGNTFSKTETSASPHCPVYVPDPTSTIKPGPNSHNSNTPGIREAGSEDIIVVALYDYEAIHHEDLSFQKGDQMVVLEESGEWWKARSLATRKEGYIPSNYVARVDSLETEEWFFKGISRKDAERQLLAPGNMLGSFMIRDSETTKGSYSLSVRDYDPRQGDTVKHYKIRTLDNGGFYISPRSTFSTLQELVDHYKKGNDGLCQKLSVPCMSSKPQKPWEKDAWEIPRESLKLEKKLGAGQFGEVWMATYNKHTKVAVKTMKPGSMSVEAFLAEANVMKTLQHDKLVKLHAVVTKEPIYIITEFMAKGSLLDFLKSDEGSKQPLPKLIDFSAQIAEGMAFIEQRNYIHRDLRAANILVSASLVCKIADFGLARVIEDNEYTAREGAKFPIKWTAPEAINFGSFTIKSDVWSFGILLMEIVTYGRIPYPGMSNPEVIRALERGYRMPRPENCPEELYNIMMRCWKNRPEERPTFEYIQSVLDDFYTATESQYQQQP", "details": "100 μM", "method_in_brief": "as §1"}, "[5]": {"molecular_target": "266 human kinases (Homo sapiens, UniProt P12931, T341M)", "details": "Src(T341M)(h); 100 μM", "method_in_brief": "as §1"}, "[6]": {"molecular_target": "266 human kinases (Homo sapiens, UniProt P15735)", "details": "PhKγ2(h); 100 μM", "method_in_brief": "as §1"}, "[7]": {"molecular_target": "266 human kinases (Homo sapiens, UniProt P35968)", "details": "KDR(h); 100 μM", "method_in_brief": "as §1"}, "[8]": {"molecular_target": "266 human kinases (Homo sapiens, UniProt P53778)", "details": "SAPK3(h); 100 μM", "method_in_brief": "as §1"}, "[9]": {"molecular_target": "266 human kinases (Homo sapiens, UniProt P80192)", "sequence (P80192 whole entry)": "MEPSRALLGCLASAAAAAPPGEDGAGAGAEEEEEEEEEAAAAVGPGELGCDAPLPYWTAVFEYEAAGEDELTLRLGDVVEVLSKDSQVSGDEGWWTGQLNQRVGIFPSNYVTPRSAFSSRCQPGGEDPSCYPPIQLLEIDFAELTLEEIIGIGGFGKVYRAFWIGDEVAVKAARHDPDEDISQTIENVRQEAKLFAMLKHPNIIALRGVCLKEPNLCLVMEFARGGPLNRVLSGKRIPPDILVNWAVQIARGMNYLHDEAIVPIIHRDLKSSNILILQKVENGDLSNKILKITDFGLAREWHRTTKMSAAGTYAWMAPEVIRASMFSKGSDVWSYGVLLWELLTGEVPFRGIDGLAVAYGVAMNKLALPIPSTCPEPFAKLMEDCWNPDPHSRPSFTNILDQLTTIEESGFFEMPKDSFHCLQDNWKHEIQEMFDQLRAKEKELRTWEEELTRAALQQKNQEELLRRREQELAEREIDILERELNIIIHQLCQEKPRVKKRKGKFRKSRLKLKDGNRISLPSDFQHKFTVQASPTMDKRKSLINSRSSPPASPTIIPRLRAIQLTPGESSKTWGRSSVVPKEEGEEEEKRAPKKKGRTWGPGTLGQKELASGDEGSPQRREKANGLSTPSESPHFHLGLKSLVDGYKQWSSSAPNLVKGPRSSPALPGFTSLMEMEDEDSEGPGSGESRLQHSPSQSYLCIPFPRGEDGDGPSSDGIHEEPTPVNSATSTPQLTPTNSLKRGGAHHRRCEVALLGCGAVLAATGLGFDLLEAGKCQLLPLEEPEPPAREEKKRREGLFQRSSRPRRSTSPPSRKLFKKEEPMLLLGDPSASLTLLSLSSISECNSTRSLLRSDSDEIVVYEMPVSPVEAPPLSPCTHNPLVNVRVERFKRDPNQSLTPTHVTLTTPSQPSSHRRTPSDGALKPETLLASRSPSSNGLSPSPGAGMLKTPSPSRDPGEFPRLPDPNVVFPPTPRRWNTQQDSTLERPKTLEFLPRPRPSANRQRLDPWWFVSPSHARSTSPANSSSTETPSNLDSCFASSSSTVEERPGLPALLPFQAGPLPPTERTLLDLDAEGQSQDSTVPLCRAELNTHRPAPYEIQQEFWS", "details": "MLK1(h); 100 μM", "method_in_brief": "as §1"}, "[10]": {"molecular_target": "266 human kinases (Homo sapiens, UniProt Q06187)", "sequence (Q06187 whole entry)": "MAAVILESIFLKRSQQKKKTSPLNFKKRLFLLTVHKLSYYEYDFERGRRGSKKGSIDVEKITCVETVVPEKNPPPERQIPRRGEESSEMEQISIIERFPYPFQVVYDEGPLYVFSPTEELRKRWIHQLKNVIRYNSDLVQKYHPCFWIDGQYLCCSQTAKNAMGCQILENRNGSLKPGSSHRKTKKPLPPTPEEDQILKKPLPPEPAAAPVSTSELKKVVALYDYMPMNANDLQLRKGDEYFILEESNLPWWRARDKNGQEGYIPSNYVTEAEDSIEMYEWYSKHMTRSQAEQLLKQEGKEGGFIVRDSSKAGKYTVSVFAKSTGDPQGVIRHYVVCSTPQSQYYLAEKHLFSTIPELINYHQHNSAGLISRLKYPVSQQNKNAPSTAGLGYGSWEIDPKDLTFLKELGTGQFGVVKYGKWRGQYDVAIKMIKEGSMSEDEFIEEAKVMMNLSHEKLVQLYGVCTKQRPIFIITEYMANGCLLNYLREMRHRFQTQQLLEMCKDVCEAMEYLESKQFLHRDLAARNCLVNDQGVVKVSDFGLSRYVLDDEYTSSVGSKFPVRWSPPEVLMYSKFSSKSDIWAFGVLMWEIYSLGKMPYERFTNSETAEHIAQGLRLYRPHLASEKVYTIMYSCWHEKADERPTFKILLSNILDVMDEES", "details": "BTK(h); 100 μM", "method_in_brief": "as §1"}, "[11]": {"molecular_target": "266 human kinases (Homo sapiens, UniProt Q07912)", "details": "ACK1(h); 100 μM", "method_in_brief": "as §1"}, "[12]": {"molecular_target": "266 human kinases (Homo sapiens, UniProt Q15303)", "sequence (Q15303 26-1308)": "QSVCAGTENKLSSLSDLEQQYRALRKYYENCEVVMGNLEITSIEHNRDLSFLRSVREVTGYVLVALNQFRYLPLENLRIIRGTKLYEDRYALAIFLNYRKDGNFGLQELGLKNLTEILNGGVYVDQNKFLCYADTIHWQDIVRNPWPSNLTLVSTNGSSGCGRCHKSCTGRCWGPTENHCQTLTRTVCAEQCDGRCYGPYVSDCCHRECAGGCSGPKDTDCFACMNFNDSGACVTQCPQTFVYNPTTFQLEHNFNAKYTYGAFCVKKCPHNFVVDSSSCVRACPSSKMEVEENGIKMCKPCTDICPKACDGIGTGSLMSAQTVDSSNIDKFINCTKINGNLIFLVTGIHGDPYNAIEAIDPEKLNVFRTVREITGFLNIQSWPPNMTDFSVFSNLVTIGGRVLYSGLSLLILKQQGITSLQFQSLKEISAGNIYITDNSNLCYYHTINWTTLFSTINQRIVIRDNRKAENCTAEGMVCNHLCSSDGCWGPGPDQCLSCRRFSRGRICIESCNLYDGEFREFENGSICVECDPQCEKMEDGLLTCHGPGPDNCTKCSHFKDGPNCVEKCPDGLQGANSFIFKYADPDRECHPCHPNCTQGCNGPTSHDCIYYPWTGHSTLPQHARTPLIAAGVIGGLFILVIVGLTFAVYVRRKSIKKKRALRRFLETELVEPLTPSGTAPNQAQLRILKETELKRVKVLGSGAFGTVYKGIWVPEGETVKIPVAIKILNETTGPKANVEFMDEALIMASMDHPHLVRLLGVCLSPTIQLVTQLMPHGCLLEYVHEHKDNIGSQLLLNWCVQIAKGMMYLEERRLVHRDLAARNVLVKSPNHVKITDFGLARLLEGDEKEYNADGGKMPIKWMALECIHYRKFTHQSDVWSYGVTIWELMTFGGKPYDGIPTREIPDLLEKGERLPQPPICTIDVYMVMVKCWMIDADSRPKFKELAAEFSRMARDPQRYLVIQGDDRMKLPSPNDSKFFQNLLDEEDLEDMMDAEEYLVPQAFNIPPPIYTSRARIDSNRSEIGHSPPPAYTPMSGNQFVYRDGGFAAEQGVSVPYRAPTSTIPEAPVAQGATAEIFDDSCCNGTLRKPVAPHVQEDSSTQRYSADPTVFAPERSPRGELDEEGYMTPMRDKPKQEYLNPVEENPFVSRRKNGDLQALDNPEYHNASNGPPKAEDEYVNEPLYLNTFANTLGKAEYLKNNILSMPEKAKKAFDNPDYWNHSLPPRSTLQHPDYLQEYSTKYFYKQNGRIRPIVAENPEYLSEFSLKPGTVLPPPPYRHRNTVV", "details": "ErbB4(h); 100 μM", "method_in_brief": "as §1"}, "[13]": {"molecular_target": "T1, 266 human kinases (Homo sapiens, UniProt Q8N568)", "T1 sequence (Q8N568 1-766)": "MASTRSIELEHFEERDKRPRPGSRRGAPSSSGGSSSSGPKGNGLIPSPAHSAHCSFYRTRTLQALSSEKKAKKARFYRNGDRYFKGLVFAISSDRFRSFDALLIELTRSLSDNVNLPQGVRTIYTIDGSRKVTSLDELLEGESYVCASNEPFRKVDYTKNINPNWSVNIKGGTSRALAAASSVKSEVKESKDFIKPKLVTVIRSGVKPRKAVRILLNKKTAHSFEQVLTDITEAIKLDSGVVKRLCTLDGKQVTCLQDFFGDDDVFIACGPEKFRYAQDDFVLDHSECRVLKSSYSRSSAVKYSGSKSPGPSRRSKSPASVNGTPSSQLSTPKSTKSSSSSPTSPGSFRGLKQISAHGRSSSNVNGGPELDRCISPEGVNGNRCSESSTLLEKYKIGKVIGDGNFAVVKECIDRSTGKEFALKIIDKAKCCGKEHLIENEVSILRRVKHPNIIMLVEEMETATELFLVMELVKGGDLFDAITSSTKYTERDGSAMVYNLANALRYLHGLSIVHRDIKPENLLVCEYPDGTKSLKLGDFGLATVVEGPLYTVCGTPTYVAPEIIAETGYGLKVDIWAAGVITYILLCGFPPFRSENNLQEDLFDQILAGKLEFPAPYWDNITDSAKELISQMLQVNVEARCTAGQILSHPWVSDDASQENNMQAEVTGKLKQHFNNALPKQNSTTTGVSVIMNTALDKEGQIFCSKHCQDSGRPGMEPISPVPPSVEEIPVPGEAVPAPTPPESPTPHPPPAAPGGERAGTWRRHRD", "details": "DCAMKL2(h); 100 μM", "method_in_brief": "as §1"}, "[14]": {"molecular_target": "266 human kinases (Homo sapiens, UniProt Q8TDX7)", "sequence (Q8TDX7 whole entry)": "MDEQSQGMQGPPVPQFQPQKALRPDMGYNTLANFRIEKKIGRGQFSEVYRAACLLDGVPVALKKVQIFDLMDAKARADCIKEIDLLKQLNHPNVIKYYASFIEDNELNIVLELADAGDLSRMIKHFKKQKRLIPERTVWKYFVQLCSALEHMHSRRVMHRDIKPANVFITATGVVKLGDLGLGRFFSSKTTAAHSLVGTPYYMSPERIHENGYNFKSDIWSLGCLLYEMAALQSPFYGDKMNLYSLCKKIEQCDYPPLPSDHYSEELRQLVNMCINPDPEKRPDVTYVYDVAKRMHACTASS", "details": "NEK7(h); 100 μM", "method_in_brief": "as §1"}, "[15]": {"molecular_target": "266 human kinases (Homo sapiens, UniProt Q9HC98)", "details": "NEK6(h); 100 μM", "method_in_brief": "as §1"}}}
{"sequence": "HRRIKAWLKKIKALARQLGVAA (mammal) [MMI-0500]", "values": [{"measurement": "% activity", "setting": "[1]", "result": 1, "unit": "%"}, {"measurement": "% activity", "setting": "[2]", "result": 2, "unit": "%"}, {"measurement": "% activity", "setting": "[3]; Lck(h) activated", "result": 76, "unit": "%"}, {"measurement": "% activity", "setting": "[3]; Lck(h)", "result": 359, "unit": "%"}, {"measurement": "% activity", "setting": "[4]; Hck(h) activated", "result": 67, "unit": "%"}, {"measurement": "% activity", "setting": "[4]; Hck(h)", "result": 78, "unit": "%"}, {"measurement": "% activity", "setting": "[5]", "result": 59, "unit": "%"}, {"measurement": "% activity", "setting": "[6]", "result": 16, "unit": "%"}, {"measurement": "% activity", "setting": "[7]", "result": 15, "unit": "%"}, {"measurement": "% activity", "setting": "[8]", "result": 24, "unit": "%"}, {"measurement": "% activity", "setting": "[9]", "result": 43, "unit": "%"}, {"measurement": "% activity", "setting": "[10]", "result": 18, "unit": "%"}, {"measurement": "% activity", "setting": "[11]", "result": 64, "unit": "%"}, {"measurement": "% activity", "setting": "[12]", "result": 2, "unit": "%"}, {"measurement": "% activity", "setting": "[13]", "result": 56, "unit": "%"}, {"measurement": "% activity", "setting": "[14]", "result": 89, "unit": "%"}, {"measurement": "% activity", "setting": "[15]", "result": 49, "unit": "%"}]}
{"sequence": "YARAAARQARAKALNRQLGVA (mammal) [MMI-0200]", "values": [{"measurement": "% activity", "setting": "[1]", "result": 67, "unit": "%"}, {"measurement": "% activity", "setting": "[2]", "result": 85, "unit": "%"}, {"measurement": "% activity", "setting": "[3]; Lck(h) activated", "result": 90, "unit": "%"}, {"measurement": "% activity", "setting": "[4]; Hck(h) activated", "result": 100, "unit": "%"}, {"measurement": "% activity", "setting": "[5]", "result": 56, "unit": "%"}, {"measurement": "% activity", "setting": "[6]", "result": 86, "unit": "%"}, {"measurement": "% activity", "setting": "[7]", "result": 110, "unit": "%"}, {"measurement": "% activity", "setting": "[8]", "result": 97, "unit": "%"}, {"measurement": "% activity", "setting": "[9]", "result": 84, "unit": "%"}, {"measurement": "% activity", "setting": "[10]", "result": 100, "unit": "%"}, {"measurement": "% activity", "setting": "[11]", "result": 97, "unit": "%"}, {"measurement": "% activity", "setting": "[12]", "result": 82, "unit": "%"}, {"measurement": "% activity", "setting": "[13]", "result": 131, "unit": "%"}, {"measurement": "% activity", "setting": "[14]", "result": 96, "unit": "%"}, {"measurement": "% activity", "setting": "[15]", "result": 98, "unit": "%"}]}
